According to patent publication US20040141994:

Biological target: UL12 alkaline nuclease (Herpes simplex virus 1) (UniProt P04294)
Experiment: cleavage_in_vitro
Details: optimal nuclease conditions; 0.06 at strand exchange conditions (pH 7.5, 1 mM MgCl2, 40 mM NaCl, 37 C)

Sequence of UL12 alkaline nuclease (Herpes simplex virus 1) (P04294 whole entry): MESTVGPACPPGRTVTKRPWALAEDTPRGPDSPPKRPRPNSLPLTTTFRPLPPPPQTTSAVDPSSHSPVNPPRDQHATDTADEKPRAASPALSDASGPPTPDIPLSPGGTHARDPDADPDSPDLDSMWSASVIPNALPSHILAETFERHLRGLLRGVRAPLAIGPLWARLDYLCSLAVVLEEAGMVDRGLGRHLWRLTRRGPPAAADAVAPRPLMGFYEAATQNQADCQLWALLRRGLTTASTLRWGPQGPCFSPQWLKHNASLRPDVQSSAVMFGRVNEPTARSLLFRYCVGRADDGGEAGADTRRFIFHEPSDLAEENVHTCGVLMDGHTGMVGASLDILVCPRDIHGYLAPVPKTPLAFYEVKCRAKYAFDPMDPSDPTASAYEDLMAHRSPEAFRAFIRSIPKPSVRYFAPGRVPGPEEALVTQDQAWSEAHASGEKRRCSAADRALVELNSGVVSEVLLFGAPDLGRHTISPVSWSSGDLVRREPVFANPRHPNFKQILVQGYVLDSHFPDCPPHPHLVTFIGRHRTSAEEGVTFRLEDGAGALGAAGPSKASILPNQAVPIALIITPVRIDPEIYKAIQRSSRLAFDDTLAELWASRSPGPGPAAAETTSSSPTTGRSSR

E. coli chromosomal DNA
activity (ng DNA/min/ng protein): 0.2
